Article PMC11996676

Biological target: aPKCι kinase domain (residues 248–596), fully primed (human), P41743
Assay: fluorescence polarisation; fluorescence anisotropy; Llgl1 P-site peptide and aPKCι kinase domain (2P, pT412 and pT564); apparent Kd

aPKCι kinase domain (residues 248–596), fully primed (human), P41743, sequence (P41743 248-596): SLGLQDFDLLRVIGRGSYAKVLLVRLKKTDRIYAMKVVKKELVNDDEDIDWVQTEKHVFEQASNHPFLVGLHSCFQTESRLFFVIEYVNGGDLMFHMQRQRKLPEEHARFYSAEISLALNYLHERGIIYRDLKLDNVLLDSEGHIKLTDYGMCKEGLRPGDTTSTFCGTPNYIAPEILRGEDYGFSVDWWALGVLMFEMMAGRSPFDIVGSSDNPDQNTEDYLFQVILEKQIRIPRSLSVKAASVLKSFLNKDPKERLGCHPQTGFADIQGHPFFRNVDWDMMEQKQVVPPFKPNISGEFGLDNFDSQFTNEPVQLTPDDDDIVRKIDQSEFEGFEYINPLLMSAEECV

Binder LAMEGPLSRVKSLKKSLRQSFRRIRKSRV (modifications not checked) [Llgl1 P-site peptide] has a Kd of 48 nM.
